Laboratory results reported in patent US10450368.

Key:
Centromere B [1] = biological target: Centromere B (UniProt P07199); experiment: AtheNA, Ab 25 ug/ml
Histones [2] = experiment: AtheNA, Ab 25 ug/ml
Jo-1 [3] = biological target: Jo-1 (UniProt P12081); experiment: AtheNA, Ab 25 ug/ml
RNP (ribonucleoprotein) [4] = experiment: AtheNA, Ab 25 ug/ml
SSA [5] = experiment: AtheNA, Ab 25 ug/ml
SSB [6] = biological target: SSB (UniProt P05455); experiment: AtheNA, Ab 25 ug/ml
Scl-70 [7] = biological target: Scl-70 (UniProt P11387); experiment: AtheNA, Ab 25 ug/ml
Sequence of Scl-70 (P11387 whole entry): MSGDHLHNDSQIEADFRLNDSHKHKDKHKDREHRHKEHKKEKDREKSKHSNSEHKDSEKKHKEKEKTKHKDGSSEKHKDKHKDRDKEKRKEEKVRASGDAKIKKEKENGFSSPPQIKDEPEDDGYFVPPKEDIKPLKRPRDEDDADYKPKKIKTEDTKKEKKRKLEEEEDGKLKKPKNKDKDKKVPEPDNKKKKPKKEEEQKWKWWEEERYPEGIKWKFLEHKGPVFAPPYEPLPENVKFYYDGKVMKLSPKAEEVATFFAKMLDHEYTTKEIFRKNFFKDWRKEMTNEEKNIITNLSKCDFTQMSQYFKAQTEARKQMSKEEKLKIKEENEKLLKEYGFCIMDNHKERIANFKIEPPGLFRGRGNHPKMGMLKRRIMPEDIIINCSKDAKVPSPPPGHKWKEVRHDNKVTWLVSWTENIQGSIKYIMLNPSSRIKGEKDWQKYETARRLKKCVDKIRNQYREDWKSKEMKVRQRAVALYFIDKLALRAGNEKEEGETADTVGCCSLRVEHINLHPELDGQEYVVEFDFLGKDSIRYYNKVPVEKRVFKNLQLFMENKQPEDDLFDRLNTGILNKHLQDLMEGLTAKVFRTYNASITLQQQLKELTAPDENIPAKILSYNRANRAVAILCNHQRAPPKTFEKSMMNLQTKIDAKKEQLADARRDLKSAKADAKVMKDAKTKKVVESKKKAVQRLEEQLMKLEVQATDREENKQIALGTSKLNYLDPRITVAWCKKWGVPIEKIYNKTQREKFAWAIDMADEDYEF

Sm (Smith antigen) [8] = experiment: AtheNA, Ab 25 ug/ml
Centromere B [9] = biological target: Centromere B (UniProt P07199); experiment: AtheNA, Ab 25 ug/ml; remark: listed apart in the source
Histones [10] = experiment: AtheNA, Ab 25 ug/ml; remark: listed apart in the source
Jo-1 [11] = biological target: Jo-1 (UniProt P12081); experiment: AtheNA, Ab 25 ug/ml; remark: listed apart in the source
RNP (ribonucleoprotein) [12] = experiment: AtheNA, Ab 25 ug/ml; remark: listed apart in the source
SSA [13] = experiment: AtheNA, Ab 25 ug/ml; remark: listed apart in the source
SSB [14] = biological target: SSB (UniProt P05455); experiment: AtheNA, Ab 25 ug/ml; remark: listed apart in the source
Sm (Smith antigen) [15] = experiment: AtheNA, Ab 25 ug/ml; remark: listed apart in the source
Centromere B [16] = biological target: Centromere B (UniProt P07199); experiment: AtheNA, Ab 12.5 ug/ml
Histones [17] = experiment: AtheNA, Ab 12.5 ug/ml
Jo-1 [18] = biological target: Jo-1 (UniProt P12081); experiment: AtheNA, Ab 12.5 ug/ml
RNP (ribonucleoprotein) [19] = experiment: AtheNA, Ab 12.5 ug/ml
SSA [20] = experiment: AtheNA, Ab 12.5 ug/ml
SSB [21] = biological target: SSB (UniProt P05455); experiment: AtheNA, Ab 12.5 ug/ml
Scl-70 [22] = biological target: Scl-70 (UniProt P11387); experiment: AtheNA, Ab 12.5 ug/ml
Sm (Smith antigen) [23] = experiment: AtheNA, Ab 12.5 ug/ml
Centromere B [24] = biological target: Centromere B (UniProt P07199); experiment: AtheNA, Ab 6.25 ug/ml
Histones [25] = experiment: AtheNA, Ab 6.25 ug/ml
Jo-1 [26] = biological target: Jo-1 (UniProt P12081); experiment: AtheNA, Ab 6.25 ug/ml
RNP (ribonucleoprotein) [27] = experiment: AtheNA, Ab 6.25 ug/ml
SSA [28] = experiment: AtheNA, Ab 6.25 ug/ml
SSB [29] = biological target: SSB (UniProt P05455); experiment: AtheNA, Ab 6.25 ug/ml
Scl-70 [30] = biological target: Scl-70 (UniProt P11387); experiment: AtheNA, Ab 6.25 ug/ml
Sm (Smith antigen) [31] = experiment: AtheNA, Ab 6.25 ug/ml
CH505.M10D8gp120 = experiment: direct-binding ELISA
CH505.M11D8gp120/293F = experiment: direct-binding ELISA
CH505.M19D8gp120 = experiment: direct-binding ELISA
CH505.M21D8gp120/293F = experiment: direct-binding ELISA
CH505.M5D8gp120293F = experiment: direct-binding ELISA
CH505.M7D8gp120/293F = experiment: direct-binding ELISA
CH505.M9D8gp120/293F = experiment: direct-binding ELISA
[32] = biological target: CH505.TF mutant gp120 M20 (HIV-1); experiment: direct-binding ELISA
[33] = biological target: CH505.TF mutant gp120 M6 (HIV-1); experiment: direct-binding ELISA
[34] = biological target: CH505.TF mutant gp120 M8 (HIV-1); experiment: direct-binding ELISA
[35] = biological target: CH505_w137V201B12.D11gp120 (HIV-1); experiment: direct-binding ELISA
[36] = biological target: CH505_w137V209C12.D11gp120 (HIV-1); experiment: direct-binding ELISA
[37] = biological target: CH505w136.B10D8gp120 (HIV-1); experiment: direct-binding ELISA
[38] = biological target: CH505w136.B12D8gp120 (HIV-1); experiment: direct-binding ELISA
[39] = biological target: CH505w136.B18D8gp120 (HIV-1); experiment: direct-binding ELISA
[40] = biological target: CH505w136.B20D8gp120 (HIV-1); experiment: direct-binding ELISA
[41] = biological target: CH505w136.B27D8gp120 (HIV-1); experiment: direct-binding ELISA
[42] = biological target: CH505w136.B29D8gp120 (HIV-1); experiment: direct-binding ELISA
[43] = biological target: CH505w136.B2D8gp120/293F (HIV-1); experiment: direct-binding ELISA
[44] = biological target: CH505w136.B36D8gp120 (HIV-1); experiment: direct-binding ELISA
[45] = biological target: CH505w136.B3D8gp120/293F (HIV-1); experiment: direct-binding ELISA
[46] = biological target: CH505w136.B4D8gp120 (HIV-1); experiment: direct-binding ELISA
[47] = biological target: CH505w136.B5D8gp120 (HIV-1); experiment: direct-binding ELISA
[48] = biological target: CH505w136.B8D8gp120 (HIV-1); experiment: direct-binding ELISA
[49] = biological target: CH505w160.A1D8gp120 (HIV-1); experiment: direct-binding ELISA
[50] = biological target: CH505w160.C11D8gp120 (HIV-1); experiment: direct-binding ELISA
[51] = biological target: CH505w160.C12D8gp120 (HIV-1); experiment: direct-binding ELISA
[52] = biological target: CH505w160.C14D8gp120 (HIV-1); experiment: direct-binding ELISA
[53] = biological target: CH505w160.C2D8gp120 (HIV-1); experiment: direct-binding ELISA
[54] = biological target: CH505w160.C4D8gp120 (HIV-1); experiment: direct-binding ELISA
[55] = biological target: CH505w160.D1D8gp120 (HIV-1); experiment: direct-binding ELISA
[56] = biological target: CH505w160.D5D8gp120/293F (HIV-1); experiment: direct-binding ELISA
[57] = biological target: CH505w160.T2D8gp120 (HIV-1); experiment: direct-binding ELISA
[58] = biological target: CH505w160.T4D8gp120/293F (HIV-1); experiment: direct-binding ELISA

Sequence of Centromere B (P07199 whole entry): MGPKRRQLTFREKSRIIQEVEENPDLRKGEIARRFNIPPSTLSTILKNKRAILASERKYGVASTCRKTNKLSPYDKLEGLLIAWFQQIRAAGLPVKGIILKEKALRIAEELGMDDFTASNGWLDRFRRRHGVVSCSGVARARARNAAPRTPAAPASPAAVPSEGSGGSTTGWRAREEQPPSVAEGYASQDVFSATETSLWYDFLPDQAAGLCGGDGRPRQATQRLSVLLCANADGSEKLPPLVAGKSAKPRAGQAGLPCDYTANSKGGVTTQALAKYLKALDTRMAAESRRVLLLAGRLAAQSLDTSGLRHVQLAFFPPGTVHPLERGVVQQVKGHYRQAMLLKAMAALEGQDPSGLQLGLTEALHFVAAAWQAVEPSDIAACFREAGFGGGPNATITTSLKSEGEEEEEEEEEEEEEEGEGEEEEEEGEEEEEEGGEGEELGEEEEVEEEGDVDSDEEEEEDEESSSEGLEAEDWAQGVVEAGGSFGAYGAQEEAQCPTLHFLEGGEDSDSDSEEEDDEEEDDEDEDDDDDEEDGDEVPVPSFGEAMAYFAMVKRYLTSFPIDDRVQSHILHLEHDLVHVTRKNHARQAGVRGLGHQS
Sequence of SSB (P05455 whole entry): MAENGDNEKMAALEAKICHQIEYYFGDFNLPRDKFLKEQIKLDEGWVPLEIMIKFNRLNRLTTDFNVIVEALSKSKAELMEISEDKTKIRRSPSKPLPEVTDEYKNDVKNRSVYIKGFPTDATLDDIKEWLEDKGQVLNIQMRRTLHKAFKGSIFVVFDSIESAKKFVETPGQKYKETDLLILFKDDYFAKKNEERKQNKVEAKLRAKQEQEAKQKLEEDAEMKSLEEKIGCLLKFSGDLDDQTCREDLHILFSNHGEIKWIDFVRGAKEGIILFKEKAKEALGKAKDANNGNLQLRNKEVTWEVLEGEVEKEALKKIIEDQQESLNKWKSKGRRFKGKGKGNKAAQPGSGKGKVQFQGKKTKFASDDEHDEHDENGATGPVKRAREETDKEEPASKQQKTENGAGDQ
Sequence of Jo-1 (P12081 whole entry): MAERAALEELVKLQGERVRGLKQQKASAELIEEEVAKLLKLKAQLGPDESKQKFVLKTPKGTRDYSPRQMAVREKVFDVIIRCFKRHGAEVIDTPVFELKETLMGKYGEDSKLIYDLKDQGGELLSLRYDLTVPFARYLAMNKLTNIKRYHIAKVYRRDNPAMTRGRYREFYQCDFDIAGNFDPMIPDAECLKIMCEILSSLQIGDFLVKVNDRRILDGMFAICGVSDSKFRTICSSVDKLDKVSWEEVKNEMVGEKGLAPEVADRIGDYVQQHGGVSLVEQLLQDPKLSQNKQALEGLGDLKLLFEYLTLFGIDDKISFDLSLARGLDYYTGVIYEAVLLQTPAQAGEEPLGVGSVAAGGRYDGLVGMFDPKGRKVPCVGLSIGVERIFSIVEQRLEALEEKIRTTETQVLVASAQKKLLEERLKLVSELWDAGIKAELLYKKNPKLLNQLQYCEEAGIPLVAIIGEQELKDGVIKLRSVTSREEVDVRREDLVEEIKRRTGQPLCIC

Question: What does the source list for synagis (antibody)?
Answer: AtheNA signal (relative luminescence units) (Centromere B [1]): 4; AtheNA signal (relative luminescence units) (Histones [2]): 5; AtheNA signal (relative luminescence units) (Jo-1 [3]): 2; AtheNA signal (relative luminescence units) (RNP (ribonucleoprotein) [4]): 4; AtheNA signal (relative luminescence units) (SSA [5]): 3; AtheNA signal (relative luminescence units) (SSB [6]): 7; AtheNA signal (relative luminescence units) (Scl-70 [7]): 2; AtheNA signal (relative luminescence units) (Sm (Smith antigen) [8]): 3; AtheNA signal (relative luminescence units) (Centromere B [9]): 2; AtheNA signal (relative luminescence units) (Histones [10]): 2; AtheNA signal (relative luminescence units) (Jo-1 [11]): 4; AtheNA signal (relative luminescence units) (RNP (ribonucleoprotein) [12]): 0; AtheNA signal (relative luminescence units) (SSA [13]): 11; AtheNA signal (relative luminescence units) (SSB [14]): 4; AtheNA signal (relative luminescence units) (Sm (Smith antigen) [15]): 4; AtheNA signal (relative luminescence units) (Centromere B [16]): 2; AtheNA signal (relative luminescence units) (Histones [17]): 3; AtheNA signal (relative luminescence units) (Jo-1 [18]): 6; AtheNA signal (relative luminescence units) (RNP (ribonucleoprotein) [19]): 3; AtheNA signal (relative luminescence units) (SSA [20]): 2; AtheNA signal (relative luminescence units) (SSB [21]): 5; AtheNA signal (relative luminescence units) (Scl-70 [22]): 3; AtheNA signal (relative luminescence units) (Sm (Smith antigen) [23]): 7; AtheNA signal (relative luminescence units) (Centromere B [24]): 2; AtheNA signal (relative luminescence units) (Histones [25]): 3; AtheNA signal (relative luminescence units) (Jo-1 [26]): 1; AtheNA signal (relative luminescence units) (RNP (ribonucleoprotein) [27]): 3; AtheNA signal (relative luminescence units) (SSA [28]): 2; AtheNA signal (relative luminescence units) (SSB [29]): 5; AtheNA signal (relative luminescence units) (Scl-70 [30]): 2; AtheNA signal (relative luminescence units) (Sm (Smith antigen) [31]): 2

Question: Which results are given for CH248 (antibody)?
Answer: LogAUC (CH505.M10D8gp120): 13.8; LogAUC (CH505.M11D8gp120/293F): 13.6; LogAUC (CH505.M19D8gp120): 13.2; LogAUC (CH505.M21D8gp120/293F): 13.8; LogAUC (CH505.M5D8gp120293F): 11; LogAUC (CH505.M7D8gp120/293F): 12.4; LogAUC (CH505.M9D8gp120/293F): 13; LogAUC [32]: 13.2; LogAUC [33]: 13.6; LogAUC [34]: 12.3; LogAUC [35]: 13.4; LogAUC [36]: 14.7; LogAUC [37]: 11.5; LogAUC [38]: 12.9; LogAUC [39]: 14.3; LogAUC [40]: 12.9; LogAUC [41]: 12.9; LogAUC [42]: 12.3; LogAUC [43]: 13.4; LogAUC [44]: 14.4; LogAUC [45]: 14; LogAUC [46]: 13.4; LogAUC [47]: 14.6; LogAUC [48]: 12.3; LogAUC [49]: 8.62; LogAUC [50]: 10.7; LogAUC [51]: 12.9; LogAUC [52]: 10.3; LogAUC [53]: 11.1; LogAUC [54]: 10.5; LogAUC [55]: 8.75; LogAUC [56]: 7.84; LogAUC [57]: 8.34; LogAUC [58]: 13.5
